Data: PMC8920075

Molecular target: Omikron (Botswana, B.1.1.529) RBD (SARS-CoV-2 (Omicron, B.1.1.529)) (UniProt P0DTC2)
Assay: ELISA

Q: REGN10933 (Casirivimab) (antibody) was tested. Which EC50 did it give?
A: Its EC50 is 0.0394 µM.
